Results as given in paper PMC2935574 (The Journal of Cell Biology, 2010).

Key:
[1] = target: T1, DSN1 (subunit of MIS12C, hexahistidine tag) (human, UniProt Q9H410 1-356); assay: co-expression and co-purification
T1 sequence (looked up): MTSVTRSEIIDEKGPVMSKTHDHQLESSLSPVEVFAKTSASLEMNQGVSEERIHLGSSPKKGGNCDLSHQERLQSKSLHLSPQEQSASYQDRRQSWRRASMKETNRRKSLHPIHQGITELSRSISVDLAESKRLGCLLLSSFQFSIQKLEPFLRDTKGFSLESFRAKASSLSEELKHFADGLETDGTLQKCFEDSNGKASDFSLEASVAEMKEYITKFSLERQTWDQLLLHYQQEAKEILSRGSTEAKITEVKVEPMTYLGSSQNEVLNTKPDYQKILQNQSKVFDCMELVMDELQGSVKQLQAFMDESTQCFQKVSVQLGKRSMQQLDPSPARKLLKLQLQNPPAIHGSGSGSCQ

[2] = target: T2, MIS12C^NSL1-258 (MIS12 complex with NSL1 residues 1–258) (human, UniProt Q9H081 1-205; Q6P1K2 1-205; Q9H410 1-356; Q96IY1 1-258); assay: AUC
T2 sequence (looked up) 1: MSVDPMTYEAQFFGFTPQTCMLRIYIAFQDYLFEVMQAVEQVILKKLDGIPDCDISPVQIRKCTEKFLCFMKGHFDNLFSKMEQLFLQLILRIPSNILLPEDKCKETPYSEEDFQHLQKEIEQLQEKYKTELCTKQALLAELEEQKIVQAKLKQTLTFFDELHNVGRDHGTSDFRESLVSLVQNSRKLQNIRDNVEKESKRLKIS
T2 sequence (looked up) 2: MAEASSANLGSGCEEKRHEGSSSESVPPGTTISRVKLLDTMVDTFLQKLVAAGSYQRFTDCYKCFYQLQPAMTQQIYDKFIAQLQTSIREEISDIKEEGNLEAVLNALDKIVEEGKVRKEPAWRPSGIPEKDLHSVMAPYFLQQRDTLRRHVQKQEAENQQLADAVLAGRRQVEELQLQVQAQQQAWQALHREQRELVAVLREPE
T2 sequence (looked up) 3: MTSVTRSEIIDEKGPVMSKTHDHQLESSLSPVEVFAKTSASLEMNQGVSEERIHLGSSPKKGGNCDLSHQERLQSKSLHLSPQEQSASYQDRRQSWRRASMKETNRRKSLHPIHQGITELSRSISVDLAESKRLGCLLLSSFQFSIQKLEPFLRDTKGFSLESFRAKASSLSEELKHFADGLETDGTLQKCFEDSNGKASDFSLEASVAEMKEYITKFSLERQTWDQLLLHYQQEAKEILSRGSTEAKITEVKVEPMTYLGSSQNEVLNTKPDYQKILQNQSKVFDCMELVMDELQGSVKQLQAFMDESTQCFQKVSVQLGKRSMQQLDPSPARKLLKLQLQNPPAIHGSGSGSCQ
T2 sequence (looked up) 4: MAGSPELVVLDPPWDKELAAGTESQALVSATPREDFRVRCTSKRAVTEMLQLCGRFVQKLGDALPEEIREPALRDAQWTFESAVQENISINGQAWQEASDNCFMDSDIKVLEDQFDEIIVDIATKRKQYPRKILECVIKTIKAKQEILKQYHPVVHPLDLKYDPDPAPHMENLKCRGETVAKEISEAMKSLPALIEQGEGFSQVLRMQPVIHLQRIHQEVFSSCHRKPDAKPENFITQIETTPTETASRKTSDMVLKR

[3] = target: T2, MIS12C^NSL1-258 (MIS12 complex with …); assay: ITC
SPC25^70–224 = target: T3, SPC25^70–224 (human, UniProt Q9HBM1 70-224); assay: AUC
T3 sequence (looked up): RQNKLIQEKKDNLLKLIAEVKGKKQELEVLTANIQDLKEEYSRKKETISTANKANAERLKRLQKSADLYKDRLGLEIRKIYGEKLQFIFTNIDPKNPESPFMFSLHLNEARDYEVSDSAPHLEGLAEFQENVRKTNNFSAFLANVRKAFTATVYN

[4] = target: T4, MIS12 complex (full-length MIS12C) (human, UniProt Q9H081 1-205; Q6P1K2 1-205; Q9H410 1-356; Q96IY1 1-281); assay: pull-down
T4 sequence (looked up) 1: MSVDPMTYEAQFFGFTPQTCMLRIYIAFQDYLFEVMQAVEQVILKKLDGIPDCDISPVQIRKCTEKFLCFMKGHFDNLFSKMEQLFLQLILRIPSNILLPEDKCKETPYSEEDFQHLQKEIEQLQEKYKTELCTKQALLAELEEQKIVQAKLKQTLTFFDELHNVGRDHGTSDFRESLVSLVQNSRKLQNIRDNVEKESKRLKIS
T4 sequence (looked up) 2: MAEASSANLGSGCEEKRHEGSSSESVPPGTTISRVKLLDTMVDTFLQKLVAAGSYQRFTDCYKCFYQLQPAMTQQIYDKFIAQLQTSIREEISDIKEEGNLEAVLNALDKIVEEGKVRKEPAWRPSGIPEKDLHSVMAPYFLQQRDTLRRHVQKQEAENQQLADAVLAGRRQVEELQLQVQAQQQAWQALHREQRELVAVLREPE
T4 sequence (looked up) 3: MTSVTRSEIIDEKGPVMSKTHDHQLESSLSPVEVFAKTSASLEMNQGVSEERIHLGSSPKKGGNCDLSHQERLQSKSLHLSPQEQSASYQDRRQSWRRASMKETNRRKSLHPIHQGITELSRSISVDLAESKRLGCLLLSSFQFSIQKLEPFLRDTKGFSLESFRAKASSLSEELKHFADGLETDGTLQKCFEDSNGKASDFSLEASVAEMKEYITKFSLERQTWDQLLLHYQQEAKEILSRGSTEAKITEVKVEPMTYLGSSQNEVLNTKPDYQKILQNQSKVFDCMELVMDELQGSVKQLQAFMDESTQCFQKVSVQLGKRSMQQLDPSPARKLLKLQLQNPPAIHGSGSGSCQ
T4 sequence (looked up) 4: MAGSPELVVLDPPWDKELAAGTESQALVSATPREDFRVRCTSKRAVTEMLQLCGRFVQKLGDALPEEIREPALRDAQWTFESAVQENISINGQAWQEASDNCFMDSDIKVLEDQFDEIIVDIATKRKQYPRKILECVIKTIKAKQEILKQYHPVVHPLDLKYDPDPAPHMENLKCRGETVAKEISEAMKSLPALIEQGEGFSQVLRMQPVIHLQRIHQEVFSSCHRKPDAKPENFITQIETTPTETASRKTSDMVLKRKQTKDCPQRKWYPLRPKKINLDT

B1: MIS12 (subunit of MIS12C) (natural protein, human, UniProt Q9H081 1-205, looked up)
chain: MSVDPMTYEAQFFGFTPQTCMLRIYIAFQDYLFEVMQAVEQVILKKLDGIPDCDISPVQIRKCTEKFLCFMKGHFDNLFSKMEQLFLQLILRIPSNILLPEDKCKETPYSEEDFQHLQKEIEQLQEKYKTELCTKQALLAELEEQKIVQAKLKQTLTFFDELHNVGRDHGTSDFRESLVSLVQNSRKLQNIRDNVEKESKRLKIS
binding result [1]: binds

B2: SPC24^57–197–SPC25^70–224 (complex, human)
chain 1: TMEKEVAQSLLNAKEQVHQGGVELQQLEAGLQEAGEEDTRLKASLLQLTRELEELKEIEADLERQEKEVDEDTTVTIPSAVYVAQLYHQVSKIEWDYECEPGMVKGIHHGPSVAQPIHLDSTQLSRKFISDYLWSLVDTEW
chain 2: RQNKLIQEKKDNLLKLIAEVKGKKQELEVLTANIQDLKEEYSRKKETISTANKANAERLKRLQKSADLYKDRLGLEIRKIYGEKLQFIFTNIDPKNPESPFMFSLHLNEARDYEVSDSAPHLEGLAEFQENVRKTNNFSAFLANVRKAFTATVYN
stoichiometry N [2]: 1 | Kd [3]: ~10 nM

B3: SPC24^57–197 (domain or fragment, human, UniProt Q8NBT2 57-197, looked up)
chain: TMEKEVAQSLLNAKEQVHQGGVELQQLEAGLQEAGEEDTRLKASLLQLTRELEELKEIEADLERQEKEVDEDTTVTIPSAVYVAQLYHQVSKIEWDYECEPGMVKGIHHGPSVAQPIHLDSTQLSRKFISDYLWSLVDTEW
stoichiometry N (SPC25^70–224): 1

B4: GST-KNL1^1904–2316 (domain or fragment, human, UniProt Q8NG31-2 1904-2316, looked up)
chain: EDLMLSQYVYRPKIQIYREDCEARRQKIEELKLSASNQDKLLVDINKNLWEKMRHCSDKELKAFGIYLNKIKSCFTKMTKVFTHQGKVALYGKLVQSAQNEREKLQIKIDEMDKILKKIDNCLTEMETETKNLEDEEKNNPVEEWDSEMRAAEKELEQLKTEEEELQRNLLELEVQKEQTLAQIDFMQKQRNRTEELLDQLSLSEWDVVEWSDDQAVFTFVYDTIQLTITFEESVVGFPFLDKRYRKIVDVNFQSLLDEDQAPPSSLLVHKLIFQYVEEKESWKKTCTTQHQLPKMLEEFSLVVHHCRLLGEEIEYLKRWGPNYNLMNIDINNNELRLLFSSSAAFAKFEITLFLSAYYPSVPLPSTIQNHVGNTSQDDIATILSKVPLENNYLKNVVKQIYQDLFQDCHFYH
binding result [4]: binds
